# Test results as given in patent US20260174875A1 (Novo Nordisk A/S, priority 2023, published 2026).
# Numbered stars: 1 amine (or outer) side, 2 acyl side, 3 side chain; on linkers, the order of the positions; unused ones are H or OH. Square brackets hold non-standard residues; d marks the D form. Side chains are listed from the residue outwards. * marks the point of attachment. C20 diacid = O=C(O)CCCCCCCCCCCCCCCCCCC(=O)*; C18 diacid = O=C(O)CCCCCCCCCCCCCCCCC(=O)*; γGlu = O=C(O)[C@H](CCC(=O)[*:2])N[*:1]; AEEA = NCCOCCOCC(=O)O; Aib = CC(C)(N)C(=O)O
# T1: human amylin-3(a) receptor (human, UniProt P30988 25-474; O60896 24-148)
# T1 sequence (looked up) 1: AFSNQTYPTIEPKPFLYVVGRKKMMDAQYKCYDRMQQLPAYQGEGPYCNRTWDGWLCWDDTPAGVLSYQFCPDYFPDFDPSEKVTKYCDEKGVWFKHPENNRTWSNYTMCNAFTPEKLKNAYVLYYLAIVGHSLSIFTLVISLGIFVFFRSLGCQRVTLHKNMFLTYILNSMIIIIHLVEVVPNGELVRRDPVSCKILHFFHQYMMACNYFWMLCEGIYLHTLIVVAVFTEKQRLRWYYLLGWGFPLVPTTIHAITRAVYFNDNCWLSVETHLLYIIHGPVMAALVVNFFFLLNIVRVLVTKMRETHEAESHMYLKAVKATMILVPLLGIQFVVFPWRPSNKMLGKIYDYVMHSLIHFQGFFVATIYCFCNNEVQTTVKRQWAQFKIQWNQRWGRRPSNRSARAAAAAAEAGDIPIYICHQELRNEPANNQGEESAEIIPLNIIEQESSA
# T1 sequence (looked up) 2: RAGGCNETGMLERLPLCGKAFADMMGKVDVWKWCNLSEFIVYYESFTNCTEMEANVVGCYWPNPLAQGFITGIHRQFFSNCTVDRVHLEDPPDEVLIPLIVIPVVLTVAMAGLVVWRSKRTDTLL
# T2: human GIP receptor (human, UniProt P48546 22-466)
# T2 sequence (looked up): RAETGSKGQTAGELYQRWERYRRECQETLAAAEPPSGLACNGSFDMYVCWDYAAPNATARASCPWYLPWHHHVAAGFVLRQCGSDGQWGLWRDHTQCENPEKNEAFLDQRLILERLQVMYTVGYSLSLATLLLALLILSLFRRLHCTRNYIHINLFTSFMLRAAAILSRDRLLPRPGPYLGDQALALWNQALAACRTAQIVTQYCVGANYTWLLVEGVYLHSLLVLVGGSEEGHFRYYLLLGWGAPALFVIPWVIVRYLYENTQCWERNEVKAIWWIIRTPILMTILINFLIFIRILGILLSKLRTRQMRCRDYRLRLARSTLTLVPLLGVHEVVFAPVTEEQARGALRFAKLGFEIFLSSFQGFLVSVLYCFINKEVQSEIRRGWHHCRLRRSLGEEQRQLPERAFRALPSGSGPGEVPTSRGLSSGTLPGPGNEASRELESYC
# B1: Compound 78 (peptide)
# peptide: H[Aib]HGTFTSDYSILLEEQAAREFIEWLLAGGPSSGAGQAPGQAPGASHLSTAQTQRLSAK([AEEA-AEEA-γGlu-C18 diacid])LHRLATLPRTETGSGSP-NH2
# B2: Compound 75 (peptide)
# peptide: H[Aib]HGTFTSDYSILLEEQAAREFIEWLLAGGPSGGEASHLSTAQTQRLSAELHK([AEEA-AEEA-γGlu-C18 diacid])LATLPRTETGSGSP-NH2
# B3: Compound 80 (peptide)
# peptide: Y[Aib]EGTFTSDYSILLEEQAAREFIEWLLAGGPSSGEASHLSTAQTQRLSAELHRLK([AEEA-AEEA-γGlu-C18 diacid])TLPRTETGSGSP-NH2
# B4: Compound 73 (peptide)
# peptide: H[Aib]HGTFTSDYSILLEEQAAREFIEWLLAGGPSK([AEEA-AEEA-γGlu-C18 diacid])GEASQLSTAALGRLSAELHRLATLPRTETGSGSP-NH2
# B5: Compound 76 (peptide)
# peptide: Y[Aib]EGTFTSDYSILLEEQAAREFIEWLLAGGPSSGAGQAPGQAPGASHLSTAQTQRLSAELHRLATLPK([AEEA-AEEA-γGlu-C20 diacid])TETGSGSP-NH2
# B6: Compound 83 (peptide)
# peptide: H[Aib]HGTFTSDYSILLEEQAAREFIEWLLAGGPSSGEASHLSTAQTQRLSAELHRLK([AEEA-AEEA-γGlu-C18 diacid])TLPRTETGSGSP-NH2
# B7: Compound 71 (peptide)
# peptide: H[Aib]HGTFTSDYSILLEEQAAREFIEWLLAGGPSRGAPPPSGGGEASHLSTQTQGRLSAELHK([AEEA-AEEA-γGlu-C18 diacid])LATLPRTETGSGSP-NH2
# B8: Compound 77 (peptide)
# peptide: Y[Aib]EGTFTSDYSILLEEQAAREFIEWLLAGGPSSGAGQAPGQAPLASHLSTAQTQRLSAELHK([AEEA-AEEA-γGlu-C20 diacid])LATLPRTETGSGSP-NH2
# B9: Compound 74 (peptide)
# peptide: Y[Aib]EGTFTSDYSILLEEQAAREFIEWLLAGGPSGGEASHLSTAQTQRLSAELHK([AEEA-AEEA-γGlu-C18 diacid])LATLPRTETGSGSP-NH2
# B10: Compound 85 (peptide)
# peptide: H[Aib]HGTFTSDYSILLEEQAAREFIEWLLAGGPSSGEASHLSTAQTQRLSAELHK([AEEA-AEEA-γGlu-C18 diacid])LATLPRTETGSGAP-NH2
# B11: Compound 84 (peptide)
# peptide: H[Aib]HGTFTSDYSILLEEQAAREFIEWLLAGGPSSGEASHLSTAQTQRLSAELHRLATLPK([AEEA-AEEA-γGlu-C18 diacid])TETGSGSP-NH2
# B12: Compound 82 (peptide)
# peptide: H[Aib]HGTFTSDYSILLEEQAAREFIEWLLAGGPSSGEASHLSTAQTQRLSAK([AEEA-AEEA-γGlu-C18 diacid])LHRLATLPRTETGSGSP-NH2
# B13: Compound 79 (peptide)
# peptide: Y[Aib]EGTFTSDYSILLEEQAAREFIEWLLAGGPSSGEASHLSTAQTQRLSAK([AEEA-AEEA-γGlu-C18 diacid])LHRLATLPRTETGSGSP-NH2
# B14: Compound 81 (peptide)
# peptide: Y[Aib]EGTFTSDYSILLEEQAAREFIEWLLAGGPSSGEASHLSTAQTQRLSAELHRLATLPK([AEEA-AEEA-γGlu-C18 diacid])TETGSGSP-NH2
# B15: Compound 72 (peptide)
# peptide: Y[Aib]EGTFTSDYSILLEEQAAREFIEWLLAGGPSRGAPPPSGGGEASHLSTQTQGRLSAELHK([AEEA-AEEA-γGlu-C18 diacid])LATLPRTETGSGSP-NH2
# How the values were obtained:
# Assay in all cases: cell-based or functional assay
# human GLP-1 receptor [1] = target: T3, human GLP-1 receptor (human, UniProt P43220 24-463)
# [2] = target: T1, human amylin-3(a) receptor
# human GIP receptor [3] = target: T2, human GIP receptor
# human GLP-1 receptor [4] = target: T3, human GLP-1 receptor; remark: listed apart in the source
# [5] = target: T1, human amylin-3(a) receptor; remark: listed apart in the source
# human GIP receptor [6] = target: T2, human GIP receptor; remark: listed apart in the source
Binder,"hGLP-1R Potency, no HSA, EC50 [pM] (human GLP-1 receptor [1])","hAMYR3 Potency, no HSA, EC50 [pM] [2] [pM]","hGIPR Potency, no HSA, EC50 [pM] (human GIP receptor [3])","hGLP-1R Potency, 1% HSA, EC50 [pM] (human GLP-1 receptor [4])","hAMYR3 Potency, 1% HSA, EC50 [pM] [5] [pM]","hGIPR Potency, 1% HSA, EC50 [pM] (human GIP receptor [6])"
B1,4.03,1.83,3.49,17.8,17.1,10.4
B2,3.66,2.49,2.65,25.2,110,11.9
B3,24.8,3.23,4.01,111,62.4,20.2
B4,4.55,1.99,4.98,54.1,61.5,96.5
B5,19.9,3.11,2.82,63.6,430,11.1
B6,2.3,2.9,2.92,9.89,45.7,13.6
B7,3.34,8.66,2.77,18.4,274,9.28
B8,19.7,3.13,2.53,51.4,382,13.4
B9,29.8,2.73,2.51,141,134,18.7
B10,3.52,4.4,2.71,30.3,250,14.6
B11,3.31,4.41,3,25.9,175,11.6
B12,3.45,3.26,3.7,24.2,38,19.1
B13,38.7,3.53,4.7,168,53.4,24.7
B14,16,4.07,3.31,51.4,188,15.8
B15,13.1,6.57,2.12,41.7,589,9.79
